From article PMC1669725

Target: Sp1 zinc-finger DNA-binding domain (truncated Sp1) (UniProt P08047 619-774)
Assay: fluorescence correlation spectroscopy

Sp1 zinc-finger DNA-binding domain (truncated Sp1), sequence (P08047 619-774): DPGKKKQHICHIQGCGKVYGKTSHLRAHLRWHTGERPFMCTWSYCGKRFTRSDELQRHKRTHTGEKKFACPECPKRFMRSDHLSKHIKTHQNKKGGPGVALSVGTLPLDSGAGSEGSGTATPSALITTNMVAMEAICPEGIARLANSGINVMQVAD

B1: HIV LTR Sp1 site 23 bp (dsDNA)
DNA 1: ACTTTCCAGGGAGGCGTGGCCTG
DNA 2: CAGGCCACGCCTCCCTGGAAAGT
- Kd: 32 ± 2 nM
